Tested on: proteins that co-immunoprecipitated with DUX4-CTD constructs expressed in MB135 myoblasts
Test: LC-MS of proteins co-immunoprecipitated with DUX4-CTD (Table 1) and western validation
Type: binding, human
Set-up: key to 4. mL1dL2 + Dox + IFNG / 4. + IFNG mix / 4. longCTD + Dox + IFNG / 3. + IFNg + Dox longCTD / 3. + Dox longCTD / 3. + IFNG longCTD: peptide-spectrum matches (PSMs) per protein
Settings: for 4. longCTD + Dox + IFNG: LC-MS counts of the listed protein co-immunoprecipitated with DUX4-CTD bait longCTD, experiment 4, Dox + IFNG; for 3. + IFNg + Dox longCTD / 3. + Dox longCTD / 3. + IFNG longCTD: bait longCTD; for 3. + IFNg + Dox longCTD: experiment 3, IFNg + Dox; for SUM of PSMS: sum over all samples; for 3. + Dox longCTD: experiment 3, Dox only; for 3. + IFNG longCTD: experiment 3, IFNG only, no doxycycline (bait at background level)
Method in brief: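 FLAG-tagged DUX4-CTD expressed in doxycycline-induced MB135 myoblasts, some also IFNG-treated; nuclear lysates in pH 7.4 NP-40 IP buffer were pre-cleared, then anti-FLAG immunoprecipitated 3 h at 4 °C. For LC-MS, FLAG-peptide elution, in-gel trypsin digest, Orbitrap analysis; proteins with ≥2 PSMs in both experiments categorised and ranked by total PSMs.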

B1: P02545 (protein, UniProt P02545 1-664, looked up)
chain: METPSQRRATRSGAQASSTPLSPTRITRLQEKEDLQELNDRLAVYIDRVRSLETENAGLRLRITESEEVVSREVSGIKAAYEAELGDARKTLDSVAKERARLQLELSKVREEFKELKARNTKKEGDLIAAQARLKDLEALLNSKEAALSTALSEKRTLEGELHDLRGQVAKLEAALGEAKKQLQDEMLRRVDAENRLQTMKEELDFQKNIYSEELRETKRRHETRLVEIDNGKQREFESRLADALQELRAQHEDQVEQYKKELEKTYSAKLDNARQSAERNSNLVGAAHEELQQSRIRIDSLSAQLSQLQKQLAAKEAKLRDLEDSLARERDTSRRLLAEKEREMAEMRARMQQQLDEYQELLDIKLALDMEIHAYRKLLEGEEERLRLSPSPTSQRSRGRASSHSSQTQGGGSVTKKRKLESTESRSSFSQHARTSGRVAVEEVDEEGKFVRLRNKSNEDQSMGNWQIKRQNGDDPLLTYRFPPKFTLKAGQVVTIWAAGAGATHSPPTDLVWKAQNTWGCGNSLRTALINSTGEEVAMRKLVRSVTVVEDDEDEDGDDLLHHHHGSHCSSSGDPAEYNLRSRTVLCGTCGQPADKASASGSGAQVGGPISSGSSASSVTVTRSYRSVGGSGGGSFGDNLVTRSYLLGNSSPRTQSPQNCSIM
modifications: full-length
With B1 the “4. longCTD + Dox + IFNG” value was 6, the “3. + IFNg + Dox longCTD” value was 3 and the “SUM of PSMS” value was 21.

B2: Q13409 (protein, UniProt Q13409 1-638, looked up)
chain: MSDKSELKAELERKKQRLAQIREEKKRKEEERKKKETDQKKEAVAPVQEESDLEKKRREAEALLQSMGLTPESPIVFSEYWVPPPMSPSSKSVSTPSEAGSQDSGDGAVGSRTLHWDTDPSVLQLHSDSDLGRGPIKLGMAKITQVDFPPREIVTYTKETQTPVMAQPKEDEEEDDDVVAPKPPIEPEEEKTLKKDEENDSKAPPHELTEEEKQQILHSEEFLSFFDHSTRIVERALSEQINIFFDYSGRDLEDKEGEIQAGAKLSLNRQFFDERWSKHRVVSCLDWSSQYPELLVASYNNNEDAPHEPDGVALVWNMKYKKTTPEYVFHCQSAVMSATFAKFHPNLVVGGTYSGQIVLWDNRSNKRTPVQRTPLSAAAHTHPVYCVNVVGTQNAHNLISISTDGKICSWSLDMLSHPQDSMELVHKQSKAVAVTSMSFPVGDVNNFVVGSEEGSVYTACRHGSKAGISEMFEGHQGPITGIHCHAAVGAVDFSHLFVTSSFDWTVKLWTTKNNKPLYSFEDNADYVYDVMWSPTHPALFACVDGMGRLDLWNLNNDTEVPTASISVEGNPALNRVRWTHSGREIAVGDSEGQIVIYDVGEQIAVPRNDEWARFGRTLAEINANRADAEEEAATRIPA
modifications: full-length
With B2 the “4. longCTD + Dox + IFNG” value was 4, the “3. + IFNg + Dox longCTD” value was 1 and the “SUM of PSMS” value was 5.

B3: P07437 (protein, UniProt P07437 1-444, looked up)
chain: MREIVHIQAGQCGNQIGAKFWEVISDEHGIDPTGTYHGDSDLQLDRISVYYNEATGGKYVPRAILVDLEPGTMDSVRSGPFGQIFRPDNFVFGQSGAGNNWAKGHYTEGAELVDSVLDVVRKEAESCDCLQGFQLTHSLGGGTGSGMGTLLISKIREEYPDRIMNTFSVVPSPKVSDTVVEPYNATLSVHQLVENTDETYCIDNEALYDICFRTLKLTTPTYGDLNHLVSATMSGVTTCLRFPGQLNADLRKLAVNMVPFPRLHFFMPGFAPLTSRGSQQYRALTVPELTQQVFDAKNMMAACDPRHGRYLTVAAVFRGRMSMKEVDEQMLNVQNKNSSYFVEWIPNNVKTAVCDIPPRGLKMAVTFIGNSTAIQELFKRISEQFTAMFRRKAFLHWYTGEGMDEMEFTEAESNMNDLVSEYQQYQDATAEEEEDFGEEAEEEA
modifications: full-length
For B3, the “4. longCTD + Dox + IFNG” value was 110, the “3. + Dox longCTD” value was 41 and the “3. + IFNG longCTD” value was 14. The “3. + IFNg + Dox longCTD” value was 75 and the “SUM of PSMS” value was 315.

B4: Q14247 (protein, UniProt Q14247 1-550, looked up)
chain: MWKASAGHAVSIAQDDAGADDWETDPDFVNDVSEKEQRWGAKTVQGSGHQEHINIHKLRENVFQEHQTLKEKELETGPKASHGYGGKFGVEQDRMDKSAVGHEYQSKLSKHCSQVDSVRGFGGKFGVQMDRVDQSAVGFEYQGKTEKHASQKDYSSGFGGKYGVQADRVDKSAVGFDYQGKTEKHESQRDYSKGFGGKYGIDKDKVDKSAVGFEYQGKTEKHESQKDYVKGFGGKFGVQTDRQDKCALGWDHQEKLQLHESQKDYKTGFGGKFGVQSERQDSAAVGFDYKEKLAKHESQQDYSKGFGGKYGVQKDRMDKNASTFEDVTQVSSAYQKTVPVEAVTSKTSNIRANFENLAKEKEQEDRRKAEAERAQRMAKERQEQEEARRKLEEQARAKTQTPPVSPAPQPTEERLPSSPVYEDAASFKAELSYRGPVSGTEPEPVYSMEAADYREASSQQGLAYATEAVYESAEAPGHYPAEDSTYDEYENDLGITAVALYDYQAAGDDEISFDPDDIITNIEMIDDGWWRGVCKGRYGLFPANYVELRQ
modifications: full-length
In the case of B4, the “4. longCTD + Dox + IFNG” value is reported as 5, the “3. + IFNg + Dox longCTD” value is reported as 1 and the “SUM of PSMS” value is reported as 6.

B5: O75083 (protein, UniProt O75083 1-606, looked up)
chain: MPYEIKKVFASLPQVERGVSKIIGGDPKGNNFLYTNGKCVILRNIDNPALADIYTEHAHQVVVAKYAPSGFYIASGDVSGKLRIWDTTQKEHLLKYEYQPFAGKIKDIAWTEDSKRIAVVGEGREKFGAVFLWDSGSSVGEITGHNKVINSVDIKQSRPYRLATGSDDNCAAFFEGPPFKFKFTIGDHSRFVNCVRFSPDGNRFATASADGQIYIYDGKTGEKVCALGGSKAHDGGIYAISWSPDSTHLLSASGDKTSKIWDVSVNSVVSTFPMGSTVLDQQLGCLWQKDHLLSVSLSGYINYLDRNNPSKPLHVIKGHSKSIQCLTVHKNGGKSYIYSGSHDGHINYWDSETGENDSFAGKGHTNQVSRMTVDESGQLISCSMDDTVRYTSLMLRDYSGQGVVKLDVQPKCVAVGPGGYAVVVCIGQIVLLKDQRKCFSIDNPGYEPEVVAVHPGGDTVAIGGVDGNVRLYSILGTTLKDEGKLLEAKGPVTDVAYSHDGAFLAVCDASKVVTVFSVADGYSENNVFYGHHAKIVCLAWSPDNEHFASGGMDMMVYVWTLSDPETRVKIQDAHRLHHVSSLAWLDEHTLVTTSHDASVKEWTITY
modifications: full-length
In the case of B5, the “4. longCTD + Dox + IFNG” value is reported as 11, the “3. + Dox longCTD” value is reported as 1 and the “3. + IFNg + Dox longCTD” value is reported as 2. The “SUM of PSMS” value was 16.

B6: Q13885 (protein, UniProt Q13885 1-445, looked up)
chain: MREIVHIQAGQCGNQIGAKFWEVISDEHGIDPTGSYHGDSDLQLERINVYYNEAAGNKYVPRAILVDLEPGTMDSVRSGPFGQIFRPDNFVFGQSGAGNNWAKGHYTEGAELVDSVLDVVRKESESCDCLQGFQLTHSLGGGTGSGMGTLLISKIREEYPDRIMNTFSVMPSPKVSDTVVEPYNATLSVHQLVENTDETYSIDNEALYDICFRTLKLTTPTYGDLNHLVSATMSGVTTCLRFPGQLNADLRKLAVNMVPFPRLHFFMPGFAPLTSRGSQQYRALTVPELTQQMFDSKNMMAACDPRHGRYLTVAAIFRGRMSMKEVDEQMLNVQNKNSSYFVEWIPNNVKTAVCDIPPRGLKMSATFIGNSTAIQELFKRISEQFTAMFRRKAFLHWYTGEGMDEMEFTEAESNMNDLVSEYQQYQDATADEQGEFEEEEGEDEA
modifications: full-length
In the case of B6, the “4. longCTD + Dox + IFNG” value is reported as 99, the “3. + Dox longCTD” value is reported as 35 and the “3. + IFNG longCTD” value is reported as 13. For the same molecule, the “3. + IFNg + Dox longCTD” value was 61 and the “SUM of PSMS” value was 208.

B7: Q9BUF5 (protein, UniProt Q9BUF5 1-446, looked up)
chain: MREIVHIQAGQCGNQIGTKFWEVISDEHGIDPAGGYVGDSALQLERINVYYNESSSQKYVPRAALVDLEPGTMDSVRSGPFGQLFRPDNFIFGQTGAGNNWAKGHYTEGAELVDAVLDVVRKECEHCDCLQGFQLTHSLGGGTGSGMGTLLISKIREEFPDRIMNTFSVMPSPKVSDTVVEPYNATLSVHQLVENTDETYCIDNEALYDICFRTLKLTTPTYGDLNHLVSATMSGVTTSLRFPGQLNADLRKLAVNMVPFPRLHFFMPGFAPLTSRGSQQYRALTVPELTQQMFDARNMMAACDPRHGRYLTVATVFRGPMSMKEVDEQMLAIQSKNSSYFVEWIPNNVKVAVCDIPPRGLKMASTFIGNSTAIQELFKRISEQFSAMFRRKAFLHWFTGEGMDEMEFTEAESNMNDLVSEYQQYQDATANDGEEAFEDEEEEIDG
modifications: full-length
With B7 the “4. longCTD + Dox + IFNG” value was 46, the “3. + Dox longCTD” value was 20 and the “3. + IFNg + Dox longCTD” value was 39. For the same molecule, the “SUM of PSMS” value was 128.

From patent US20250339531A1, “DUX4 POLYPEPTIDES AND NUCLEIC ACIDS FOR TREATING INFLAMMATORY AND AUTOIMMUNE CONDITIONS” (Fred Hutchinson Cancer Center, priority 2021, published 2025)
